Results published in patent US8658382B2, “Proteins with pteridine glycosyltransferase activity and analysis method using the same” (Inje University Industry-Academic Cooperation Foundation, priority 2008, dated 2014).
“Also recorded” adds a separate entry of the source.

Columns and labels:
[1] = test system: BGluT; assay: Pteridines as substrate or competitive inhibitor of the BGluT reaction; format: biochemical, Synechococcus sp. PCC 7942; settings: for glucosylated product formed from the pteridine as substrate of BGluT: pteridine concentration increased to 5 μM, data not shown
Experimental: Unless otherwise specified, the following standard reaction conditions were used for the determination of tetrahydrobiopterin and its oxidized forms. Reactions were carried out in a final volume of 100 μl, which consisted of 50 mM Tris-HCl (pH 7.5), 10 mM MgCl2, 0.05% ascorbic acid, 500 μM UDP-glucose, 1 μg of BGluT, and an aliquot of pteridines or tissue extracts. The reaction mixture was incubated for 20 minutes at 37° C. and then mixed with 30 μl of acidic iodine solution (2% KIM % I2 in 1 N HCl). After 1 hour in the dark at room temperature, the oxidized mixture was centrifuged. The supernatant was mixed with 10 μl of 5% ascorbic acid and then neutralized with 30 μl of 1 N NaOH for injection to HPLC.
(§1) The HPLC system consisted of Gilson 321 pump, Gilson 234 autoinjector, a fluorescence detector (Schimadzu RF-10AXL), and a system software (Gilson Unipoint version 5.11). Chromatography was performed on a guard column (10 μm, 4.3 mm×1 cm) and an Inertsil ODS-3 (5 μm, 150×2.3 mm, GL Science, Japan) equilibrated with 10 mM potassium phosphate buffer (pH 6.0) at room temperature. Pteridines were eluted isocratically at a flow rate of 1.2 ml/min and monitored at 350/450 nm (excitation/emission). Pteridine peaks were identified and quantified using authentic pteridines, which were purchased from Dr. B. Schirck's Lab (Jona, Switzerland). Biopterin-glucoside was isolated from Synechococcus sp. PCC 7942 (Y. K. Choi, Y. K. Hwang, Y. H. Kang, Y. S. Park, Chemical structure of 1-O-(L-erythro-biopterin-2′-yl)-alpha-glucose isolated from a cyanobacterium Synechococcus sp. PCC 7942, Pteridines, 12 (2001) 121-125).
To determine whether the presence of dihydrobiopterin, structurally similar to tetrahydrobiopterin, interferes with glucosylation of tetrahydrobiopterin, 1 μM of dihydrobiopterin was added to the same mixture for enzyme reaction as in FIG. 1B, which was then oxidized under acidic condition.
Biological samples contain tetrahydrobiopterin as well as its oxidized forms (dihydrobiopterin and bipterin). In order to quantitatively analyze only tetrahydrobiopterin selectively using BGluT, the BGluT reaction should be specific to tetrahydrobiopterin, without being interfered by its oxidized forms. Using various pteridines (dihydrobiopterin, biopterin, neopterin, tetrahydroneopterin, and isomers thereof) as a substrate, potential inhibitory effect was evaluated. […] It therefore was suspected that dihydrobiopterin might function as a competitive inhibitor in glucosylation of tetrahydrobiopterin by BGluT.
However, when the concentration of dihydrobiopterin is higher than tetrahydrobiopterin, dihydrobiopterin could show inhibitory effects. In order to examine whether dihydrobiopterin interferes with the BGluT reaction, dihydrobiopterin was coincubated under the standard reaction condition with a fixed amount (0.25 μM) of tetrahydrobiopterin, along with increasing concentrations of dihydrobiopterin up to 4-fold (0.05˜1 μM) (see FIG. 4). In FIG. 4, the X-axis represents concentrations of dihydrobiopterin added to the reaction solution and the Y-axis represents peak areas of the glucosylated product produced from tetrahydrobiopterin. The results thereof show means±standard deviations of the peak areas of biopterin-glucoside, which were obtained from triplicate assays. […] In general, the concentrations of the oxidized forms of tetrahydrobiopterin in a biological sample are not higher than that of tetrahydrobiopterin.
In order to examine whether the added dihydrobiopterin has been glucosylated even in small amount, the peak areas of biopterin originated from the dihydrobiopterin (X-axis) were compared with those determined from the same concentration of dihydrobiopterin without enzyme reaction (Y-axis) (FIG. 4 (insert)). The slope obtained from regression line was almost 1.

[2] = Characterization of enzyme activity by amount of protein, compared with BGluT; format: biochemical; settings: production of tetrahydrobiopterin-glycoside by amount of protein (0.05-1.0 μg), FIG. 11
Experimental: The enzymatic activities for the isolated proteins were compared with that of BGluT. First, production profiles of tetrahydrobiopterin(BH4)-glucoside produced according to amounts of the proteins was compared with that of BGluT. The enzyme activities were represented as a percentage to all converted amounts. The reaction condition was as follows. That is, reactions were performed in a final volume of 100 μl, which consisted of 50 mM Tris-HCl (pH 7.5), 10 mM MgCl2, 0.05% ascorbic acid, 1 μM tetrahydrobiopterin, 500 μM UDP-glucose or UDP-xylose, and a protein (0.05-1.0 μg). The reaction mixture was incubated at 37 for 20 minutes. 30 μl of acidic iodine solution (2%/1% KI/I2 in 1 M HCl) was added thereto in darkness for 1 hour at room temperature, so as to oxidize the reaction mixture. After centrifugation, the resulting supernatant was mixed with 10 μl of 5% ascorbic acid and neutralized with 30 μl of 1N NaOH for injection to HPLC.

[3] = Analysis of protein activity of the recombinant proteins with UDP-glycosides; format: biochemical; settings: for pteridine glycosyltransferase activity (sugar bound to tetrahydrobiopterin): 1 μM tetrahydrobiopterin, 500 μM UDP-glycoside, HPLC, FIG. 10
Experimental: The protein activity was assayed in 100 μl of reaction mixture having the following composition: 50 mM Tris-HCl (pH 7.5), 10 mM MgCl2, 0.2% ascorbic acid, 1 μM tetrahydrobiopterin, 500 μM UDP-glycoside (one of UDP-glucose, UDP-galactose, UDP-xylose, UDP-glucuronic acid, UDP-galacturonic acid, UDP-N-acetylglucosamine, and UDP-N-acetylgalactosamine) and an appropriate amount of the purified recombinant protein. The reaction was performed at 37 for 10-60 minutes depending on an amount of protein. 30 μl of acidic iodine solution (2%/1% KI/I2 in 1 M HCl) was added to the reaction mixture and allowed in darkness for 1 hour for oxidation thereof. The mixture was centrifuged to recover the supernatant, which was then mixed with 10 μl of 5% ascorbic acid. 30 μl of 1N NaOH was added to the resulting mixture for neutralization and then HPLC analysis was carried out.
as §1, with “HPLC” for “The HPLC”, “quantified by” for “quantified”

[4] = Pteridine glycosyltransferase activity with human urine; format: biochemical; settings: 1 μg protein, 10 μl human urine in 100 μl, FIG. 12
Experimental: Also, 1 μg of each protein was added to 100 μl of reaction solution containing 10 μl of human urine instead of tetrahydrobiopterin. The reaction mixture was incubated at for 20 minutes. For CY-49, 500 μM UDP-xylose was added as a substrate; and for other enzymes, UDP-glucose was added. Other reaction conditions were the same as in the above.

Row | Molecule | HPLC chromatogram of the reaction mixture with human urine [4] | glucosylated product formed from the pteridine as substrate of BGluT [1] | Substrate for glucosylation [3] | pteridine glycosyltransferase activity (sugar bound to tetrahydrobiopterin) [3] | other results
1 | C[C@H](O)[C@H](O)C1=Nc2c(nc(N)[nH]c2=O)NC1 [dihydrobiopterin] | – | a small amount of glucosylated product | – | – | slope of regression line, biopterin-glucoside peak area against dihydrobiopterin concentration ([1]; 0.25 μM tetrahydrobiopterin, 0.05~1 μM dihydrobiopterin, standard reaction condition, FIG. 4): zero; effect of added dihydrobiopterin on glucosylation of tetrahydrobiopterin ([1]; 1 μM dihydrobiopterin added, FIG. 1C): no significant difference in the amounts of glucosylated products of tetrahydrobiopterin; slope of regression line, biopterin from dihydrobiopterin with BGluT against without enzyme reaction ([1]; FIG. 4 (insert)): ~1
2 | Nc1nc2ncc([C@H](O)[C@H](O)CO)nc2c(=O)[nH]1 [neopterin] | – | only dihydrobiopterin among the pteridines showed | – | – | –
3 | Nc1nc2c(c(=O)[nH]1)NC(C(O)C(O)CO)CN2 (stereo not drawn) [tetrahydroneopterin] | – | only dihydrobiopterin among the pteridines showed | – | – | –
4 | biopterin | – | only dihydrobiopterin among the pteridines showed | – | – | –
5 | UICA: recombinant pteridine glycosyltransferase from unidentified wild cyanobacteria A, amino acid SEQ ID NO 4 (protein, Unidentified cyanobacteria sp.) LSRKLLFLSTPVGFLGSGGGGGVELTIYNLARTLNKQGYAVRVVAPEASQLQDIPLITIAGNAQISAQSQDREAPILIPENAVLANMWHYAQQVQNEYDLIVNFAYDWLPFYLTPFFATPVAHLVSMASVSLAMDNIIQKTYRSFPHSLAFHTVTQAETFSLSPPYRRLANGLDVSLYQFRADPSPCLAWVGRIAPEKALEGAIAACQQLGVPLRVFGHISNPLYWQNLQDTYSFDLVDYRGFLPTGSLQKELGDCFGLLMTPGWVEAFGNVAIEALACGVPVVAYRRGGPVEIIEEGKTGFLVEPDSIEGLVTGIKNLDRIDRYSCRAVVEQKYSLEALANRAINWFDEIFARKK | very similar to that of BGluT | – | Glucose | an activity for binding glucose to tetrahydrobiopterin | –
6 | CY-49: recombinant pteridine glycosyltransferase from Spirulina maxima CY-49, amino acid SEQ ID NO 3, transfers xylose (protein, Spirulina maxima CY-49) MPQKSWKLLFISTPVGPLGSGLGGGVELTLLNMAKALHSRGHDITVVAPSGSVLESLSVIEISGKLQPIAQNQDRDSLITIPENSVLGNMWEYGRQVQTNYHAIVNFAFDWLPFYLTPFFPTPIAHWVSMGSLISALDQIVVEVMKQFPGTVGFYSHTQAATFGSDLGYACLGSGLEMDRYQFCDQPHQQLAWMGRISPEKGLEDAIAAADKTGIPLAIFGKIQDEQYWQNILNTYPNAPLNYRGFLNTDELQQGLRECRGLLMTHRWVEAFGNVAIEALACGVPVISYRRGGPAEIVRDGETGWLVEPDSVTGLVDAIAKLEQIDRRQCRALAEKEYSLVALGDRLETWLSDVIALKN | showed the peak of biopterin-xylose, instead of biopterin-glucose | – | Xylose | an activity for binding xylose to tetrahydrobiopterin | activity compared with BGluT [2]: higher activities than BGluT

Now from value to molecule, other results behind:

Row | HPLC chromatogram of the reaction mixture with human urine [4] | Molecule | glucosylated product formed from the pteridine as substrate of BGluT [1] | Substrate for glucosylation [3] | pteridine glycosyltransferase activity (sugar bound to tetrahydrobiopterin) [3] | other results
7 | very similar to that of BGluT | CY-7: recombinant pteridine glycosyltransferase from Spirulina platensis CY-7, amino acid SEQ ID NO 2 (protein, Spirulina platensis CY-7) MTPTSWKLLFISTPVGPLGSGLGGGVELTLLNMAKALKSRGHDITVVAPSGSVLESLSIIEIPGELQPIAQNQDRDSLITIPENSVLGNMWEYGRQVQTNYHAIVNFAFDWLPFYLTPFFDTPIAHCVSMASLISALDQIVGQVMKQFPGTVGFHSHTQAATFGSDLDYACLGSGLEMERYQFCEQPHQQLAWMGRISPEKGLEDAIAAADKTGIPLEIFGKIQDDQYWQNILNTYPNAPLNYRGFLNTDELQQGLRQCRGLLMTHRWVEAFGNVAIEALACGVPVISYRRGGPAEIVRDGETGWLVEPDSVTGLVDAIAKFEQIDRRQCRAVAEKEYSLAALGDRLEKWLSDVTRLKN | – | Glucose | an activity for binding glucose to tetrahydrobiopterin | activity compared with BGluT [2]: higher activities than BGluT; also recorded: more excellent activity than BGluT
8 | very similar to that of BGluT | UICB: recombinant pteridine glycosyltransferase from unidentified wild cyanobacteria B, amino acid SEQ ID NO 5 (protein, Unidentified cyanobacteria sp.) LSRKLLFLSTPVGFLGSGDGGGVELTIYNLARTLNKQGYAVRVAAPEASQLQDIPLITMAGNAQISAQSQGREAPILMPENAVLANMWHYAQQVQKQYDLIVNFAYDWLPFYLTPFFATPVAHLVSMASVSLAMDHINEKTYSNFPHLLAFHTLAQAETFSLSPPYRCLANGLDVSLYQFRDDPSPCLAWVGRIAPEKALEDAIAACQQLGVPLRVFGHISDPLYWQNSQDTYSFDLVDYRGFLPTGSLQKELGDCFGLLMTPRWVEAFGNVAIEALACGVPVVAYRRGGPVEIIEEGKTGFLVEPDSIEGLVTGIKNLDRIDRYSCRAVVEQKYSLEASANRAINWFEEIFARKK | – | Glucose | an activity for binding glucose to tetrahydrobiopterin | –
